Laboratory results from article PMC8371321, “A Novel Z-Ring Associated Protein ZapA-Like Protein (PA5407) From Pseudomonas aeruginosa Promotes FtsZ to Form Double Filaments” (Frontiers in Microbiology, 2021).

How the values were obtained:
[1] = molecular target: T1, FtsZ from Pseudomonas aeruginosa (P. aeruginosa, UniProt P47204 1-394); test: light scattering; FtsZ with ZapAL, ZapA or a 1:1 mixture of both, mixed with 1 mM or 0.1 mM GTP, HMK buffer (50 mM HEPES pH 7.5, 5 mM MgAc, 100 mM KAc), room temperature, 340 nm; conditions: both partners purified
T1 construct: FtsZ, Pseudomonas aeruginosa; pET15b containing the entire ftsZ gene (NdeI/BamHI); His6 tag removed with thrombin; The construct is from Chen et al., 2012; Residues of the vector may be left after the thrombin cut; Forms protofilaments with GTP; also called PaFtsZ; source: E. coli BL21(DE3), purified (Talon column, thrombin, source Q column)
T1 sequence (looked up): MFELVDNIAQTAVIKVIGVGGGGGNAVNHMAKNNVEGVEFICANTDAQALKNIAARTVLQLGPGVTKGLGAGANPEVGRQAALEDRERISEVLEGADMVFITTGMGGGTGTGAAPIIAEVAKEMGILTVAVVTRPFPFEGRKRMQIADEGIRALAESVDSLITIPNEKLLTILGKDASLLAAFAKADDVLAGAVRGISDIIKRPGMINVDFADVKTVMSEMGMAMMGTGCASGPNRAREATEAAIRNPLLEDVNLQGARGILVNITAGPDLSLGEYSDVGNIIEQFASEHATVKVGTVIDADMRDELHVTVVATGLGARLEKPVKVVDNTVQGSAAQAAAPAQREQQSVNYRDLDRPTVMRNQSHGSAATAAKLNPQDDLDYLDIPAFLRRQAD

[2] = molecular target: T1, FtsZ from Pseudomonas aeruginosa; test: co-sedimentation; 15 uM FtsZ with 15 or 30 uM ZapAL, 1 mM GTP, 10 min at room temperature, 80,000 rpm for 30 min at 25 C (Beckman TLA100); pellet and supernatant by SDS-PAGE and ImageJ; conditions: both partners purified

B1: ZapA (PA5227) from Pseudomonas aeruginosa (natural protein, P. aeruginosa, UniProt Q9HTW3 1-104, looked up)
chain: MSQSNTLTVQILDKEYCINCPDDERANLESAARYLDGKMREIRSSGKVIGADRVAVMAALNITHDLLHRKERLDQESSSTRERVRELLDRVDRALANPADAGEA
notes: pET15b containing the entire zapA gene (NdeI/BamHI); The construct is from Rahman et al., 2020; Stored and used with the His6 tag; also called PA5207; source: E. coli BL21(DE3), purified (Talon column)
B1: binds [1].

B2: ZapA-Like protein (ZapAL; PA5407) from Pseudomonas aeruginosa (natural protein, P. aeruginosa, UniProt Q9HTF7 1-96, looked up)
chain: MSRDGVQVLSILGRDYSIRVPAGEERALADAAALLQAEVDANKRKFPYVTSNELVVLSALNLCARQLGANDGESPRLRAVEQRLEALVERIAGASG
notes: ZapA-Like protein ZapAL (PA5407), Pseudomonas aeruginosa, 96 amino acids; pET15b containing the entire zapAL gene (NdeI/BamHI); Stored and used with the His6 tag; also called ZapL; source: E. coli BL21(DE3), purified (Talon column)
In the case of B2, the “stoichiometry N” value [2] is reported as ~1 FtsZ:ZapAL (molar ratio).
